Data published in paper PMC2361611.
Like-named read-outs stand apart in the source and are kept apart here.

How the values were obtained:
[1] = molecular target: polyubiquitin (UniProt P0CG48)
[2] = molecular target: polyubiquitin (UniProt P0CG48); assay: ELISA; 0.50 ug polyubiquitin dried per well (Nunc MaxiSorp), blocked with 1% BSA; angiocidin or mutants at various concentrations in TBST pH 7.4, 1.5 h, room temperature; detected with biotinylated rabbit antiangiocidin IgG and streptavidin-HRP; fitted to a rectangular hyperbola
[3] = molecular target: polyubiquitin (UniProt P0CG48); assay: as above; remark: listed apart in the source

| Substance | endothelial cell apoptotic activity: viability of HUVE cells plated overnight on wells coated with 1 ug protein, Alamar blue assay (fold lower than angiocidin) [1] | Kd [2] [nM] | Kd [3] [nM] |
| --- | --- | --- | --- |
| angiocidin mutant M-2 (L216ALAL220 substituted with alanines) (natural protein) | 2 | 1.52 | 15 |
| angiocidin (his-tagged recombinant, full length) (natural protein) |  |  | 0.041 |
